Our source for the phosphorylation enrichment and SH2 binding enrichment values is the supplement of paper PMC10065799, “High-throughput profiling of sequence recognition by tyrosine kinases and SH2 domains using bacterial peptide display” (eLife, 2023).

Data set [1] deals with AncSZ. In words: phosphorylation enrichment, bacterial display (enrichment ratio); higher = better substrate or ligand; peptides without Tyr show the background.
The target of data set [2] is EPHB1 (UniProt P54762). The data set is described as above.
Sequence of EPHB1 (P54762 whole entry, looked up): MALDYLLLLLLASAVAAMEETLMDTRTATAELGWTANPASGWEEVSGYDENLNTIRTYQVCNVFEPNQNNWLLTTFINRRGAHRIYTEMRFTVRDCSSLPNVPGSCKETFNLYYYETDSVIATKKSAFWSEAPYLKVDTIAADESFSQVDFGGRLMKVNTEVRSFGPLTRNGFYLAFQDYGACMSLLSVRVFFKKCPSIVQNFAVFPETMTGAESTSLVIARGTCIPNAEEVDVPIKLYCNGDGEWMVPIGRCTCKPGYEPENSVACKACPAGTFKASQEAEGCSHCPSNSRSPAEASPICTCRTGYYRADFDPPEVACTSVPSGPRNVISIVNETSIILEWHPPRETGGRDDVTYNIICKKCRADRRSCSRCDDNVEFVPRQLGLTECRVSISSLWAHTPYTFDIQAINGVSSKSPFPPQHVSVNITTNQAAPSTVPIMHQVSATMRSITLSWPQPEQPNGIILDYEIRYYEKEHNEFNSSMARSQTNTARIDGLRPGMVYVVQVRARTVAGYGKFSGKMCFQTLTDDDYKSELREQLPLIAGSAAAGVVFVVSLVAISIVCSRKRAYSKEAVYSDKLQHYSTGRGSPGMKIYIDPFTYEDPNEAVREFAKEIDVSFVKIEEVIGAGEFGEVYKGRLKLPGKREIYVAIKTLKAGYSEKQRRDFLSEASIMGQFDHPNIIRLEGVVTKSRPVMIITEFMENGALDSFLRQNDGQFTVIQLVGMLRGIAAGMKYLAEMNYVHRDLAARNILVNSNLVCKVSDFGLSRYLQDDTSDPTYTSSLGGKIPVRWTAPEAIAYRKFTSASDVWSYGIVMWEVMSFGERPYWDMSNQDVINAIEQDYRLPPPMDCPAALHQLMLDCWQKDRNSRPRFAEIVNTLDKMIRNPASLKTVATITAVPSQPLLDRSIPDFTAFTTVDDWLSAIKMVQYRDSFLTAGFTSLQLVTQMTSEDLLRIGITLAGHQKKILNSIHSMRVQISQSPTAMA
Data set [3] concerns the target EPHB2 (UniProt P29323). Described as above.
The target in data set [4] is FGFR1 (UniProt P11362). Described as above.
In data set [5] the target is FGFR3 (UniProt P22607). The data set is described as above.
Data set [6] deals with Fer (mouse). The data set is described as above.
In data set [7] the target is Fes (UniProt P07332). Described as above.
Sequence of Fes (P07332 whole entry, looked up): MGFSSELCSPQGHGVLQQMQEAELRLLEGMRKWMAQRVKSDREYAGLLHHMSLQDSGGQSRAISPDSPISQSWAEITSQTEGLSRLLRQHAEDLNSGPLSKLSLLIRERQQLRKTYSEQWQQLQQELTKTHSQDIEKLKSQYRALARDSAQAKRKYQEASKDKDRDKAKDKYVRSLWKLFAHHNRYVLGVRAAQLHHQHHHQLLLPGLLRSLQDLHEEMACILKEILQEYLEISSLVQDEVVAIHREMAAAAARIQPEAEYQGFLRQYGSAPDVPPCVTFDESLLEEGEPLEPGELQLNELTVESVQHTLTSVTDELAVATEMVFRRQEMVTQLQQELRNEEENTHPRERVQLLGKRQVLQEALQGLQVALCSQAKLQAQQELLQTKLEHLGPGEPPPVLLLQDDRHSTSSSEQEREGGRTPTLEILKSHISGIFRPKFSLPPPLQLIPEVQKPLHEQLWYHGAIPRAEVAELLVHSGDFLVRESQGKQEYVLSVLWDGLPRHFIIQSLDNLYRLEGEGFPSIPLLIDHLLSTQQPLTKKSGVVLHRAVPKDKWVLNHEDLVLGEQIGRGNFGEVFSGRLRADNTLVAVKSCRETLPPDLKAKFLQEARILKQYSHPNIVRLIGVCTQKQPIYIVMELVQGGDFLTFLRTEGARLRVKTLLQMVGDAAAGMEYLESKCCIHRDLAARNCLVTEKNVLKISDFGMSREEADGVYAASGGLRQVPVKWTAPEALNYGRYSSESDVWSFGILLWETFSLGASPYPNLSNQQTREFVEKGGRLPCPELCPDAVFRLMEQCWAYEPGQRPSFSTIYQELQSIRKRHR
For data set [8], the target named is Fyn (UniProt P06241). The description is as above.
The target of data set [9] is Hck (UniProt P08631). The description is as above.
Sequence of Hck (P08631 whole entry, looked up): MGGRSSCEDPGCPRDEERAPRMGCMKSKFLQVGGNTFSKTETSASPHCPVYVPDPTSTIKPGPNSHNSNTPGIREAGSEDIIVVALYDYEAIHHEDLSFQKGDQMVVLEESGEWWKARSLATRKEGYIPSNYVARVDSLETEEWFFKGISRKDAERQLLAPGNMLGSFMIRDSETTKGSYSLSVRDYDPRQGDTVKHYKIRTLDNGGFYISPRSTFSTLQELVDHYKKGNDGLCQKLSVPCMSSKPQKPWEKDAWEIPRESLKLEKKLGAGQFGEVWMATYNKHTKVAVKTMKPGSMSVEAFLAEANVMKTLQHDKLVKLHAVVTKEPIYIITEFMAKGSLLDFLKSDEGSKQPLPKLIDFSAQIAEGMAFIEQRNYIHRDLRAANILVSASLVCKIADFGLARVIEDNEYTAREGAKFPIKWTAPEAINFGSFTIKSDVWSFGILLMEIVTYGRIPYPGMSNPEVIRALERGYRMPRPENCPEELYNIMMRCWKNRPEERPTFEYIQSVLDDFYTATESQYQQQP
Data set [10] has as its target Jak2 (UniProt O60674). Described as above.
For data set [11], the target named is MERTK (UniProt Q12866). The data set is described as above.
The subject of data set [12] is c-Abl (mouse). The description is as above.
The subject of data set [13] is c-Src. Described as above.
Data set [14] has as its target Grb2 SH2 (UniProt P62993). Briefly: SH2 binding enrichment of the phosphorylated peptide, bacterial display (enrichment ratio); higher = better substrate or ligand; peptides without Tyr show the background.
For data set [15], the target named is SHP2-C SH2. The description is as above.
For data set [16], the target named is c-Src SH2. The data set is described as above.
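Throughout, for SH2 binding enrichment of the phosphorylated peptide, bacterial display: peptide library displayed on the E. coli surface as eCPX fusions, selected cells deep-sequenced, score is each peptide's frequency after selection divided by its frequency in the input.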
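Throughout, for phosphorylation enrichment, bacterial display: 11-residue human phosphosite peptides and single-mutation variants displayed on the E. coli surface, counted by deep sequencing, each peptide's frequency after selection divided by its frequency in the unselected input library; frequency after pTyr selection over input frequency; kinase dosed for 20-30% of maximal phosphorylation in three min.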

Sequence of EPHB2 (P29323 whole entry, looked up): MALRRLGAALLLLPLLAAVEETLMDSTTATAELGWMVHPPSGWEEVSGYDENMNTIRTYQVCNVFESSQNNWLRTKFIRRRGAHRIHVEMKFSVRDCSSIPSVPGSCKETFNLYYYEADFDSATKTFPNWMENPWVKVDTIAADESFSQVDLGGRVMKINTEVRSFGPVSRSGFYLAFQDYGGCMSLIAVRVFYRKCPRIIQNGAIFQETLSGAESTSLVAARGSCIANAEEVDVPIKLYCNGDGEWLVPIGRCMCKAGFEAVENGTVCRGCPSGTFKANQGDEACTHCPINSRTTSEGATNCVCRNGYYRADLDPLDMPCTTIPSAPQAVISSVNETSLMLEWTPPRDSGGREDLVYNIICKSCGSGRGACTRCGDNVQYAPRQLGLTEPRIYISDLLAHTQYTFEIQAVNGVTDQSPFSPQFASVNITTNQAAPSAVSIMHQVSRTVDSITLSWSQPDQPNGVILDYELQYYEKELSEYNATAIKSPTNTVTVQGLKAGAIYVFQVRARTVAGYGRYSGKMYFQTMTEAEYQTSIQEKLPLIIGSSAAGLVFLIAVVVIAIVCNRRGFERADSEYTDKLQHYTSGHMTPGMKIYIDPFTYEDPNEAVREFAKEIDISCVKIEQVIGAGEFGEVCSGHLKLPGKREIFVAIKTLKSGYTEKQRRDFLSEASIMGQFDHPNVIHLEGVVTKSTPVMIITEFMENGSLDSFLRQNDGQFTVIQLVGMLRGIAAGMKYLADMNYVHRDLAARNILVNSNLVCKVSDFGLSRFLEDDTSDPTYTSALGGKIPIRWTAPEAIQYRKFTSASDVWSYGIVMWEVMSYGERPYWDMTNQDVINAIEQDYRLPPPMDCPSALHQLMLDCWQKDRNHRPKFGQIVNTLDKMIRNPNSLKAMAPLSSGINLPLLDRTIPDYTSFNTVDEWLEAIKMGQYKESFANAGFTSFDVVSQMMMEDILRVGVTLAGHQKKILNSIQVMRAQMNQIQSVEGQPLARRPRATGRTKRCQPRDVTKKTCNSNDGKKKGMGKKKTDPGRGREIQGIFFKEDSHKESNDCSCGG
Sequence of Grb2 SH2 (P62993 whole entry, looked up): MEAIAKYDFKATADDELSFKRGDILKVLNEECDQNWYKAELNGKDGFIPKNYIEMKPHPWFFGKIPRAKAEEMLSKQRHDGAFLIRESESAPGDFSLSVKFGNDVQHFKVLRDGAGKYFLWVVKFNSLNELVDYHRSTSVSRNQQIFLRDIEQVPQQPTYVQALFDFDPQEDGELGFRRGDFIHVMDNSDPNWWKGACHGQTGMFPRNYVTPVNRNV
Sequence of Jak2 (O60674 whole entry, looked up): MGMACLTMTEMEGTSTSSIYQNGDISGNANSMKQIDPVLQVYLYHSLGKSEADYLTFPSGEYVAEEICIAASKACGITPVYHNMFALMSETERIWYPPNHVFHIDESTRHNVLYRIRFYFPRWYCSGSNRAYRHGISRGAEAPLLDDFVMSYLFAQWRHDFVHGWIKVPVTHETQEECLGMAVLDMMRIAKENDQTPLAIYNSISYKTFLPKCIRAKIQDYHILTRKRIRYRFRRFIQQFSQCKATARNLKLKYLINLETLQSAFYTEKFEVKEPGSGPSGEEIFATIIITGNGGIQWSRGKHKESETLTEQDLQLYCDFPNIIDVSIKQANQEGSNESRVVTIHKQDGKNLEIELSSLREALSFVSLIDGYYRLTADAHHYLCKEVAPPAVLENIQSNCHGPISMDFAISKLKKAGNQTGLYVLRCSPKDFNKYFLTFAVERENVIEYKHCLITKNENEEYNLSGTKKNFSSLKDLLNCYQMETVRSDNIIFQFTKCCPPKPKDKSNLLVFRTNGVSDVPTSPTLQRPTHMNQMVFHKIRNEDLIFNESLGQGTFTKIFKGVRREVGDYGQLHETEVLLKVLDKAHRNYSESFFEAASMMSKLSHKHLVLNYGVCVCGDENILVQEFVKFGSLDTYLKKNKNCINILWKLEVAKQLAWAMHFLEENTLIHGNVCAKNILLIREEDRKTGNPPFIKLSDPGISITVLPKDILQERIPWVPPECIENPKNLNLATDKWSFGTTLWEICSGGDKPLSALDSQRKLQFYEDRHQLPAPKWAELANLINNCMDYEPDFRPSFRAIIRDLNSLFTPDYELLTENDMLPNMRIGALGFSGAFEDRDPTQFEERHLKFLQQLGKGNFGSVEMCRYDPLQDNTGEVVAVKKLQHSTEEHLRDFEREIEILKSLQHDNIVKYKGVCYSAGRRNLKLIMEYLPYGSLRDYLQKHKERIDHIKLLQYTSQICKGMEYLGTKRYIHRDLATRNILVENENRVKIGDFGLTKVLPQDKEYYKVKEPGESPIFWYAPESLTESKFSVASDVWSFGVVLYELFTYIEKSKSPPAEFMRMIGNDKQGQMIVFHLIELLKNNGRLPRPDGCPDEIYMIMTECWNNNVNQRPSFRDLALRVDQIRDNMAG

For the sequence KVALPYKPFFF [POLE_Y100_YF], the phosphorylation enrichment was found to be 0.743 in data set [1]; 0.42 in [2]; 0.715 in data set [3]; 0.375 in data set [4]; 0.537 in data set [5]; 0.455 in data set [6]. Also, the phosphorylation enrichment worked out at 0.855 in data set [7]; 0.44 in data set [8]; 0.557 in [9]; 0.674 in data set [10]; 0.41 in data set [11]; 0.656 in data set [12]. For the same sequence, the phosphorylation enrichment in data set [13] was 0.547. For the same sequence, the SH2 binding enrichment came out at 1.3 in [14], 1.28 in data set [15] and 1.12 in data set [16].
With KVKEQYQDVPM [PKP2_Y659], the phosphorylation enrichment in data set [1] was 0.667; in data set [2], 0.455; in data set [3], 0.431; in [4], 0.509; in data set [5], 0.48; in data set [6], 0.36. For the same sequence, the phosphorylation enrichment in [7] was found to be 0.717; in data set [8], 0.446; in data set [9], 0.48; in data set [10] it was 0.632; in data set [11], 0.401; in [12] it was 0.603. Moreover, the phosphorylation enrichment in [13] turned out to be 0.395. Also, the SH2 binding enrichment in data set [14] is 0.801; in [15] it was 0.776; in data set [16], 0.728.
Consider KYRREYILSLE [GPC3_Y299_W296R], for which the phosphorylation enrichment in data set [1] turned out to be 0.754; in [2], 0.364; in [3], 0.465; in [4] it was 0.427; in [5], 0.491; in data set [6], 0.534. Moreover, the phosphorylation enrichment was 0.698 in [7]; 0.468 in data set [8]; 0.49 in data set [9]; 0.628 in [10]; 0.576 in [11]; 0.511 in [12]. Further, the phosphorylation enrichment in data set [13] stood at 0.613. Also, the SH2 binding enrichment stood at 0.774 in data set [14], 0.606 in data set [15] and 0.374 in data set [16].
LAARYYNWVCF [FLT4_Y1231_S1235C]: the phosphorylation enrichment is 1.37 in data set [1]; 0.899 in [2]; 0.615 in data set [3]; 1.96 in [4]; 1.94 in data set [5]; 1.39 in data set [6]. The phosphorylation enrichment was found to be 1.51 in [7]; 0.777 in [8]; 0.588 in data set [9]; 1.11 in data set [10]; 1.04 in data set [11]; 0.977 in data set [12]. Besides, in data set [13], the phosphorylation enrichment was 0.512. In addition, the SH2 binding enrichment in data set [14] amounted to 4.36; in data set [15], 0.752; in data set [16], 1.07.
With LARDIYKNDYY [ROS1_Y2110], the phosphorylation enrichment in data set [1] turned out to be 1.1; in data set [2] it was 0.953; in data set [3], 0.782; in data set [4], 3.15; in data set [5], 2.19; in [6], 0.369. Besides, the phosphorylation enrichment in data set [7] was determined as 0.828; in [8], 0.854; in data set [9], 0.712; in [10] it was 0.752; in [11], 0.426; in [12] it was 0.462. For the same sequence, the phosphorylation enrichment in data set [13] stood at 1.42. The SH2 binding enrichment in data set [14] is 1.02; in data set [15] it was 0.722; in data set [16], 0.881.
Consider LASLIYNFILF [AQP6_Y231_V234I], for which the phosphorylation enrichment is 2.67 in [1]; 2.51 in data set [2]; 1.28 in [3]; 4.45 in data set [4]; 4.49 in [5]; 19 in [6]. Moreover, the phosphorylation enrichment in data set [7] stood at 3.72; in data set [8] it was 13.3; in [9], 11.5; in data set [10], 2.98; in data set [11], 14.7; in data set [12], 5.49. For the same sequence, the phosphorylation enrichment in [13] worked out at 12.7. The SH2 binding enrichment in data set [14] turned out to be 0.993; in [15], 1.04; in data set [16] it was 1.02.
In the case of LASSEYPVQRR [GALK1_Y236_R239Q], the phosphorylation enrichment in [1] stood at 0.732; in data set [2], 0.381; in data set [3], 0.308; in data set [4] it was 0.58; in data set [5], 1.17; in data set [6], 0.981. Moreover, the phosphorylation enrichment stood at 1.32 in data set [7]; 1.07 in [8]; 0.761 in data set [9]; 1.06 in data set [10]; 0.554 in data set [11]; 1.03 in data set [12]. In data set [13], the phosphorylation enrichment came to 0.707. Besides, the SH2 binding enrichment came to 1.16 in [14], 0.794 in [15] and 0.256 in data set [16].
For the sequence LDAGEYCVPRG [BEX1_Y43], the phosphorylation enrichment came out at 8.78 in data set [1]; 3.38 in data set [2]; 3.87 in [3]; 1.32 in data set [4]; 1.73 in data set [5]; 1.47 in data set [6]. The phosphorylation enrichment in data set [7] was found to be 2.01; in [8], 1.26; in data set [9], 1.57; in data set [10] it was 1.05; in data set [11], 0.866; in data set [12], 3.62. The phosphorylation enrichment in data set [13] came to 0.816. For the same sequence, the SH2 binding enrichment in data set [14] worked out at 0.844; in [15], 0.715; in data set [16] it was 0.453.
As for LDYNEYFRYLN [HPRT1_Y198_D201Y], the phosphorylation enrichment came out at 1.79 in [1]; 0.858 in data set [2]; 1.39 in data set [3]; 3.33 in data set [4]; 2.1 in data set [5]; 0.635 in data set [6]. Moreover, the phosphorylation enrichment in [7] was found to be 1.23; in data set [8], 1.45; in [9], 1.41; in [10], 7.21; in [11] it was 0.573; in [12] it was 1.81. For the same sequence, the phosphorylation enrichment in data set [13] was 2.04. Besides, the SH2 binding enrichment in [14] turned out to be 2.06; in [15], 1.18; in data set [16], 0.765.
